Measurements reported in paper PMC5599369.

Molecular target: gramicidin A (Bacillus brevis)
Assay: single-channel electrophysiology

## gramicidin A (peptide)
  channel (dimer) lifetime: < 3 ms
